According to patent publication US20240132622A1 (Bristol-Myers Squibb, published 2024):
Substitutions are numbered along the chain they refer to. Numbers in names are those of the source.

B1: hz13-5 (antibody, IgG1, V domains shown)
VH: EVLLVQSGAEVKKPGASVKLSCTSSDFNIKDHFIHWVRQAPGKGLEWMGRIDPEDDETKYAPKFQDRVTMTADTSTDTAYMELSSLRSEDTAVFYCAGYGNYEGAMDYWGQGTLVTVSS
VL: DIQMTQSPSSLSASVGDRVTITCRASENVNNYGIGFMNWFQQKPGKAPKLLIYAASRRGSGVPSRFSGSGSGTDFTLTISSLQPEDFATYFCQQSKEVPYTFGQGTKVEIK
notes: also called clone 13-based hz13-5 antibody; parent hz13-5
B2: hz13-5 D31E (antibody, V domains shown)
VH: B1 VH with D31E
VL: DIQMTQSPSSLSASVGDRVTITCRASENVNNYGIGFMNWFQQKPGKAPKLLIYAASRRGSGVPSRFSGSGSGTDFTLTISSLQPEDFATYFCQQSKEVPYTFGQGTKVEIKR
notes: IgG1.3f; also called clone 13-based hz13-5 D31E
B3: hz13-8 (antibody, V domains shown)
VH: B1 VH with M48I, M70I, M81L
VL: B1 VL
notes: light constant region not tied to this antibody
B4: hz13-6 (antibody, V domains shown)
VH: B1 VH
VL: B1 VL with Q3V, I21L, L82M, V108L
notes: as for B3
B5: hz13-2 (antibody, V domains shown)
VH: B1 VH with L3Q, L20V, F94Y
VL: B1 VL
notes: as for B3
B6: hz13-9 (antibody, V domains shown)
VH: B1 VH with M48I, M70I, M81L
VL: B1 VL with Q3V, I21L, L82M, V108L
notes: as for B3
B7: hz13-1 (antibody, V domains shown)
VH: B1 VH with L3Q, L20V, F94Y
VL: B1 VL with F40Y, F91Y
notes: as for B3
B8: hz13-7 (antibody, V domains shown)
VH: B1 VH with M48I, M70I, M81L
VL: B1 VL with F40Y, F91Y
notes: as for B3
B9: hz13-3 (antibody, V domains shown)
VH: B1 VH with L3Q, L20V, F94Y
VL: B1 VL with Q3V, I21L, L82M, V108L
notes: as for B3
B10: hz13-4 (antibody, V domains shown)
VH: B1 VH
VL: B1 VL with F40Y, F91Y
notes: as for B3
B11: hz20-2 (antibody, IgG1, V domains shown)
VH: QVQLVQSGAEVKKPGASVKVSCKASGYTFTNYGISWVRQAPGQGLEWMGEIYPRSGNTYHNEKFKDRVTMTTDTSTSTAYMELRSLRSDDTAVYYCARSMITTRYWYFDVWGQGTLVTVSS
VL: DIQMTQSPSSLSASVGDRVTITCRASESVDTYGNSFMHWYQQKPGKAPKLLIYLASNLESGVPSRFSGSGSGTDFTLTISSLQPEDFATYYCQQNNEDPLTFGQGTKVEIK
notes: also called clone 20-based hz20-2 antibody
B12: hz20-6 (antibody, V domains shown)
VH: B11 VH with V20L, S25T, M48I, M70L, T72A, T74K, T76S, L83F, Y95F
VL: B11 VL
notes: as for B3

Key:
recombinant human PAD4 [1] = biological target: T1, recombinant human PAD4 (human, UniProt Q9UM07 1-663); assay: cell-based or functional assay
T1 sequence (Q9UM07 whole entry): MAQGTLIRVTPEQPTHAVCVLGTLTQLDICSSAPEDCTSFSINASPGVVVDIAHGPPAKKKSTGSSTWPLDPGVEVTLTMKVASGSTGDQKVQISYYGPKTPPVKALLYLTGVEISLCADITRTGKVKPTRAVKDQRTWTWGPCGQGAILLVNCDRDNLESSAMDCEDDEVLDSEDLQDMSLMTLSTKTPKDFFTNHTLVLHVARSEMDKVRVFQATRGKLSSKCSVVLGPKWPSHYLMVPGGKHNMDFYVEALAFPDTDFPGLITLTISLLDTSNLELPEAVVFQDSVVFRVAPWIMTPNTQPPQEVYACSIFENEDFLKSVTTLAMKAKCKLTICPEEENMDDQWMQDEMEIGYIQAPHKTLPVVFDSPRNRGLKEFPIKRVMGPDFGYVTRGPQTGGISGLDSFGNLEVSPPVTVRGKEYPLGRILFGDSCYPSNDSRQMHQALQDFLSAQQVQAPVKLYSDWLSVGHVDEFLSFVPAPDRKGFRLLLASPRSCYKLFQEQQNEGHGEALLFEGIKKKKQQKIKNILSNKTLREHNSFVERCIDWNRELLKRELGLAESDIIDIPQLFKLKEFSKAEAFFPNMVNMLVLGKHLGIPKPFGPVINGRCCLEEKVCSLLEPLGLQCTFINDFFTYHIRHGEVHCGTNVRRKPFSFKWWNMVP

recombinant human PAD4 [2] = biological target: T1, recombinant human PAD4; assay: cell-based or functional assay; remark: listed apart in the source
recombinant human PAD4 [3] = biological target: T1, recombinant human PAD4; assay: SPR 37 C, captured antibody, PAD4 analyte, 2 mM EDTA
Experimental: (§1) For SPR measurements, either an anti-human capture surface or Protein A surface (Cytiva catalog #29127555) was used. Anti-human capture surface was prepared by immobilizing anti-human capture antibody (Cytiva catalog #29234600) onto flow cells of a CM5 or CM4 biosensor following the manufacturer's amine coupling protocol (Cytiva catalog #BR-1006-33). SPR experiments were conducted at 37° C. using HBS-P (150 mM NaCl, 10 mM HEPES, pH 7.6, 0.05% Tween-20) (TEKNOVA catalog #H8032) with additional 150 mM NaCl and 1 mM or 2 mM CaCl₂) (see Table 2) or 2 mM EDTA (see Table 3) as running buffer. Antibodies were diluted to 1.5 μg/mL in the running buffer, and were captured across active biosensor flow cells at 10 μL/min for 15 to 30 seconds. […] The association and dissociation of the antibodies with PAD4 were measured. One 30 second injection followed by one 15 second injection of 10 mM glycine pH 1.5 was used to regenerate the Protein A capture surface between assay cycles. For anti-human capture surface, two 30 second injections of 3 M MgCl₂ was used for regeneration. SPR measurements for mAb20 and mAb 13 SPR were done in the presence of 2 mM CaCl₂). The remaining antibodies were tested in the presence of 1 mM CaCl₂).
Rate constants kₒₙ and koff were derived from reference flow cell- and 0 nM blank-subtracted sensorgrams, and were fit to a 1:1 binding model in Biacore® Insight Evaluation software version 3.0.12.15655. Deviations from 1:1 binding model were observed, which may be caused by increased dimerization of PAD4 at higher concentrations. The equilibrium dissociation constant, KD, was calculated as the ratio of rate constants koff/kₒₙ for each PAD4 antibody. For those antibodies that were tested in multiple SPR experiments, the average value and standard deviation from two or three separate experiments are listed in Tables 2 and 3.

recombinant human PAD4 [4] = biological target: T1, recombinant human PAD4; assay: SPR 37 C, captured antibody, PAD4 analyte, 1 mM CaCl2
Experimental: Their binding to human PAD4 was measured by Surface Plasmon Resonance (SPR). SPR measurements were performed with a Biacore® 8K, 8K+, or T200 instrument (Cytiva). The association rate constants, kₒₙ, dissociation rate constants, koff, and equilibrium dissociation constants, KD, of the antibodies with PAD4 were determined from these SPR measurements.
as §1
Rate constants kₒₙ and koff were derived from reference flow cell- and 0 nM blank-subtracted sensorgrams, and were fit to a 1:1 binding model in Biacore® Insight Evaluation software version 3.0.12.15655. Deviations from 1:1 binding model were observed, which may be caused by increased dimerization of PAD4 at higher concentrations. The equilibrium dissociation constant, KD, was calculated as the ratio of rate constants koff/kₒₙ for each PAD4 antibody.

[5] = biological target: extracellular matrix (ECM) proteins; assay: ECM plate ELISA (Matrigel), 1 uM antibody, A450 over wells without sample
recombinant human PAD4 [6] = biological target: T1, recombinant human PAD4; assay: cell-based or functional assay; remark: listed apart in the source

Binder | IC50 (average), PAD4 citrullination of peptide …, RapidFire MS (recombinant human PAD4 [2]) [nM] | Kd (recombinant human PAD4 [3]) [nM] | koff (recombinant human PAD4 [3]) [s⁻¹] | kon (recombinant human PAD4 [3]) [M⁻¹ s⁻¹] | Kd (recombinant human PAD4 [4]) [nM] | koff (recombinant human PAD4 [4]) [s⁻¹] | kon (recombinant human PAD4 [4]) [M⁻¹ s⁻¹] | ECM Score (1 µM) [5] | other results
B1 | 48.2 | 0.1 | 0.00021 | 2.1e+06 | 0.1 | 0.00012 | 1.6e+06 | 1 | IC50, citrulline ELISA on peptide …, 13.5 nM rhPAD4 (recombinant human PAD4 [1]): 0.7 nM; IC50, citrulline ELISA on peptide …, 108 nM rhPAD4 (recombinant human PAD4 [1]): 5.02 nM
B2 | – | 0.306 | 0.000358 | 1.17e+06 | 0.147 | 0.000171 | 1.32e+06 | – | mean IC50, PAD4 driven H3 citrullination (ELISA), 13.5 nM PAD4, with 100 ug/ml purified IgG of NHV sera (n=6) (recombinant human PAD4 [1]): 9 nM; mean IC50, PAD4 driven H3 citrullination (ELISA), 13.5 nM PAD4, with 100 ug/ml purified IgG of RA sera (n=21) (recombinant human PAD4 [1]): 8.2 nM; IC50 run 1, citrulline ELISA on peptide …, 13.5 nM rhPAD4 (recombinant human PAD4 [6]): 0.34 nM; IC50 run 1, citrulline ELISA on peptide …, 27 nM rhPAD4 (recombinant human PAD4 [6]): 1.77 nM; IC50 run 1, citrulline ELISA on peptide …, 54 nM rhPAD4 (recombinant human PAD4 [6]): 3.13 nM; IC50 run 1, citrulline ELISA on peptide …, 108 nM rhPAD4 (recombinant human PAD4 [6]): 6.03 nM; IC50 run 2, citrulline ELISA on peptide …, 13.5 nM rhPAD4 (recombinant human PAD4 [6]): 0.73 nM; IC50 run 2, citrulline ELISA on peptide …, 27 nM rhPAD4 (recombinant human PAD4 [6]): 1.26 nM; IC50 run 2, citrulline ELISA on peptide …, 54 nM rhPAD4 (recombinant human PAD4 [6]): 3.14 nM; IC50 run 2, citrulline ELISA on peptide …, 108 nM rhPAD4 (recombinant human PAD4 [6]): 4.29 nM; IC50 run 3, citrulline ELISA on peptide …, 13.5 nM rhPAD4 (recombinant human PAD4 [6]): 0.37 nM; IC50 run 3, citrulline ELISA on peptide …, 27 nM rhPAD4 (recombinant human PAD4 [6]): 0.89 nM; IC50 run 3, citrulline ELISA on peptide …, 54 nM rhPAD4 (recombinant human PAD4 [6]): 2.68 nM; IC50 run 3, citrulline ELISA on peptide …, 108 nM rhPAD4 (recombinant human PAD4 [6]): 4.65 nM
B3 | 62.8 | 0.1 | 0.00016 | 1.9e+06 | 0.1 | 0.00014 | 1.7e+06 | 2 | –
B4 | 39.1 | 0.1 | 0.00023 | 1.7e+06 | 0.1 | 0.00012 | 1.6e+06 | 1 | –
B5 | 96.4 | 0.1 | 0.00025 | 2e+06 | 0.1 | 0.00012 | 1.7e+06 | 1 | –
B6 | 76 | 0.1 | 0.00019 | 2e+06 | 0.1 | 0.00016 | 2e+06 | 2 | –
B7 | 125 | 0.3 | 0.0004 | 1.3e+06 | 0.2 | 0.00015 | 880000 | 1 | –
B8 | 170 | 0.1 | 0.00025 | 2e+06 | 0.1 | 0.00015 | 1.2e+06 | 1 | –
B9 | 23.3 | 0.1 | 0.00021 | 1.9e+06 | 0.1 | 0.00013 | 1.5e+06 | 1 | –
B10 | 115 | 0.2 | 0.00032 | 1.4e+06 | 0.1 | 0.00013 | 930000 | 1 | –
B11 | 73 | 1 | 0.00032 | 310000 | 1.1 | 0.00029 | 290000 | 6 | –
B12 | 64 | 1.2 | 0.00037 | 300000 | 0.6 | 0.00025 | 390000 | 16 | –
